The target of test [1] is T1, human Ang2 (construct not stated) (human, UniProt O15123 19-496, limits assumed).
T1 sequence (looked up): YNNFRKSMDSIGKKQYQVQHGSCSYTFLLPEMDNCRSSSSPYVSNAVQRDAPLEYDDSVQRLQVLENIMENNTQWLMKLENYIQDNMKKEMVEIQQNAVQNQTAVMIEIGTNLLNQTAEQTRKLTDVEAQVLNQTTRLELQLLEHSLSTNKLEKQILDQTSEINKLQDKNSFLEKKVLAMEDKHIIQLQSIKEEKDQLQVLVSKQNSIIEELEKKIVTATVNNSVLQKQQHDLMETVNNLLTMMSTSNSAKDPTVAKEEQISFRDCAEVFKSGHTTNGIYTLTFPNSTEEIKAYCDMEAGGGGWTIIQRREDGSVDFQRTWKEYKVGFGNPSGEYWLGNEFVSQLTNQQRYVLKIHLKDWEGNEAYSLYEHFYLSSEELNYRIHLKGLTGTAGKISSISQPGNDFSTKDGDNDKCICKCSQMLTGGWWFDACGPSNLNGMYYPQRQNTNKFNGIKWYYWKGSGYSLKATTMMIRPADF
The test can be described thus: cell-based or functional assay.

Test [2] concerns the target T2, biotinylated human Ang2 protein (human, UniProt O15123 19-496, limits assumed, biotinylated (sites not given)).
T2 construct: also called hAng2
T2 sequence (looked up): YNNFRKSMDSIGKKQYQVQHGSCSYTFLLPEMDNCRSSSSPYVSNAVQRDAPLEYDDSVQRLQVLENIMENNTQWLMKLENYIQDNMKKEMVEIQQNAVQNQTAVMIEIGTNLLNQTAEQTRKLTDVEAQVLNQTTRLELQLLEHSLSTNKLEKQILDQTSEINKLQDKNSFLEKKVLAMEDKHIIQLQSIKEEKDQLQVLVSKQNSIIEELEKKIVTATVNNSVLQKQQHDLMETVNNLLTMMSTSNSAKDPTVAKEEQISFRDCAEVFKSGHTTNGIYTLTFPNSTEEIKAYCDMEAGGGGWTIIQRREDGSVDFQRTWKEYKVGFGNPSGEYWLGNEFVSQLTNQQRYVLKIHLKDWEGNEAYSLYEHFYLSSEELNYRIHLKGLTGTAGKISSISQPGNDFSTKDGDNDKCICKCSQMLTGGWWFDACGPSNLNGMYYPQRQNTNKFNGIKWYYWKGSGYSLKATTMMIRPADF
The experiment in a line: competition ELISA: antibody preincubated with biotinylated hAng2, binding to coated integrin α5/β1. As to the method:
1 μg/ml (100 μl per well) of a human Ti32-Fc (R&D Systems, 313-TI) or mouse Tie2-Fc (R&D Systems, 762-T2-100) solution, an integrin α3/β1 solution (R&D systems, 2840-A3-050), or an integrin α5/β1 solution (R&D systems, 3230-A5-050) was added to a 96-well immunoplate (Nunc, US) and then allowed to stand overnight at 4° C. for adsorption. The next day, the plate was washed four times with PBS containing 0.05% Tween-20 (hereinafter, referred to as PBST), and 200 μl of a 2% BSA/PBST solution was added to each well and then allowed to stand at room temperature for 1 hour to perform blocking. Anti-Ang2 candidate antibodies were serially diluted 4-fold at a maximum of 1000 nM, and biotinylated human Ang2 protein was made to a final concentration of 100 ng/mL or 625 ng/mL, followed by previous binding at room temperature for 1 hour. […] The plate was washed three times with PBST, 100 μl of HRP-conjugated streptavidin (R&D Systems, DY998) diluted to 1:200 was added to allow a reaction to occur at room temperature for 1 hour, thereby inducing binding, and the plate was washed four times with PBST, followed by color development using 100 μl of a TMB substrate reagent. The color development reaction was stopped by adding 50 μl of 2N H₂SO₄, and a Sunrise microplate reader (TECAN, CH) was used to measure specific absorbance OD₄₅₀ (FIGS. 4 and 5).
In general terms: In an ELISA, binding on a coated surface is turned into a signal by an enzyme label.

The target of test [3] is T3, mouse Ang2 (construct not stated) (mouse, UniProt O35608 19-496, limits assumed).
T3 construct: also called mAng2
T3 sequence (looked up): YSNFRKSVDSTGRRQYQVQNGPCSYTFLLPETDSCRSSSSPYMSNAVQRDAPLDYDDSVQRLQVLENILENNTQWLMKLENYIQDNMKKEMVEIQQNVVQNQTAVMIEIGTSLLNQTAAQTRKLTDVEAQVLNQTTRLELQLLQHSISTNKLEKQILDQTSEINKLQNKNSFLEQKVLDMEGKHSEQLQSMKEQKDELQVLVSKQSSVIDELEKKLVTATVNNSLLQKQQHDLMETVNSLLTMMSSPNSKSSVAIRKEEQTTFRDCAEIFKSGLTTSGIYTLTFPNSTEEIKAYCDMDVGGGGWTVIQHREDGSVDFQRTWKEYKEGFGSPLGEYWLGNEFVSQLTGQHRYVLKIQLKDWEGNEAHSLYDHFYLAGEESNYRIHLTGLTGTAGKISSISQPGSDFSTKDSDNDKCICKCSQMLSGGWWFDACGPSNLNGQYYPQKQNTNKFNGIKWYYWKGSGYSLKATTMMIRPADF
The test can be described thus: competition ELISA: antibody preincubated with mAng2, binding to coated mouse Tie2-Fc.

In test [4] the target is T4, His-tagged mouse Ang1 (sino, 50300-M07H) (mouse, UniProt O08538 20-498).
T4 construct: Bought protein; not shown: His tag
T4 sequence (looked up): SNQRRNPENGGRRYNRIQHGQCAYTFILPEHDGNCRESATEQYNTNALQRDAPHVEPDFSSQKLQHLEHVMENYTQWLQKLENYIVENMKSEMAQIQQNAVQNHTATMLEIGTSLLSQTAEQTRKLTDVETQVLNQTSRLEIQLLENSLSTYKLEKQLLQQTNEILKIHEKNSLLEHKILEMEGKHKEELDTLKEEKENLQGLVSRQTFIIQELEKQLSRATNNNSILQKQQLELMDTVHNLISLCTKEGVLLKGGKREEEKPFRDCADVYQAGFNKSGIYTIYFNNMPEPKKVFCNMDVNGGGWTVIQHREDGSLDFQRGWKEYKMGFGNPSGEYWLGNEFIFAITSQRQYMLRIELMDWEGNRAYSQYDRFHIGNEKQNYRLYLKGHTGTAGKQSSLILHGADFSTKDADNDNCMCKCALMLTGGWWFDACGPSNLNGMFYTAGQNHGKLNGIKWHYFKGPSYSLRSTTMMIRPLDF
The experiment in a line: binding ELISA, His-tagged mouse Ang1 coated at 1 µg/ml, detection with HRP anti-human IgG(kappa) [panel 'mouse Ang1 binding ELISA']. As to the method: 1 μg/ml (100 μl per well) of a His-tagged human (R&D systems, 623-AN/CF) or mouse (sino, 50298-M07H) Ang2 solution or a His-tagged human (R&D systems, 923-AN/CF) or mouse (sino, 50300-M07H) Ang1 solution was added to a 96-well immunoplate (Nunc, US) and allowed to stand overnight at 4° C. for adsorption. The next day, the solution was washed three times with PBS containing 0.05% Tween-20 (hereinafter, referred to as PBST), and 200 μl of a 2% BSA/PBST solution was added to each well and then allowed to stand at room temperature for 2 hours to perform blocking. After washing three times with PBST, 100 μl of each test antibody solution was added to each well according to concentration to cause binding at room temperature for 1 hour, and then washing was performed three times with PBST, 100 μl of HRP-conjugated goat anti-human IgG(kappa) (bethyl lab #A80-115P) diluted to 1:2000 was added and allowed to react at room temperature for 1 hour, thereby inducing binding, and after washing three times with PBST, color development was performed using 100 μl of a TMB substrate reagent. The color development reaction was stopped by adding 50 μl of 2N H₂SO₄, and a Sunrise microplate reader (TECAN, CH) was used to measure specific absorbance OD₄₅₀₋₆₃₀ (FIG. 3).

By IC50 is commonly meant the point on the concentration scale where inhibition reaches its midpoint. A higher IC50 goes with weaker potency in that assay.

B1: No. 4 anti-Ang2 antibody (IgG) (antibody, V domains shown)
VH: QVQLVESGAEVKRPGESLRISCKTSGYSFTSYWIHWVRQMPGKELEWMGSIYPGNSDTRYSPSFQGHVTISADSSSSTAYLQWSSLKASDTAMYYCTTEGLMNGLHFDMWGQGTMVTVSS
VL: DIVMTQTPLSLPVTPGEPASISCRSSQSLLHSLGDNYLDWYLQKPGQSPQLLIYLGSKRAAGVPDRFSGSGSGTDFTLKISRVEAEDVGVYYCMQSLQTPPYTFGQGTKLEIKR
notes: IgG form: VH cloned into Invivogen pfusess-hchg1, VL into Invivogen pfuse2ss-hclk; also called 2D8
For the molecule B1, the “IC50 of Tie2 phosphorylation (Phospho-Tie2 ELISA) in human Tie2-overexpressing cells treated with human Ang2 (5 µg/ml) preincubated with antibody” value (“IC50 of Tie2 phosphorylation” below) in test [1] was 12.3 nM. The IC50 in test [2] was 1.57 nM; in test [3], 4.54 nM. Besides, in test [4], the binding result is listed as “no binding (tested: 2 mg/ml (unit as read in the legend))”.

B2: No. 3 anti-Ang2 antibody (IgG) (antibody, V domains shown)
VH: QMQLVQSGGGLVQPGRSLKLSCAASGFSFDDYAMHWVRQAPGKGLEWVATIKDDGSQTYYVDSVKGRFTISRDNAKSSLFLQMNSLRAEDTAVYYCTTEGLMNGLHFDMWGQGTMVTVSS
VL: LVLTQPPSVSGAPGQGVTISCTGSSSNIGAGYDVHWYQQFPGTAPKLLISGNNNRPSGLPDRFSGSKSGTSASLAITGLQAEDEADYYCQSYDSRLGVVFGGGTKLTVLG
notes: IgG form: VH cloned into Invivogen pfusess-hchg1 (heavy chain constant region), VL into Invivogen pfuse2ss-hclk (light chain constant region); Expressed in Expi293F, purified on Protein A; also called 1D10
As to B2, in test [1], the “IC50 of Tie2 phosphorylation” value is 8.53 nM. Further, the figures for the IC50 in test [2] and in test [3] were 1.53 nM and 5.02 nM, respectively. The binding result in test [4] is “no binding (tested: 2 mg/ml (unit as read in the legend))”.

B3: No. 41 anti-Ang2 antibody (IgG) (antibody, V domains shown)
VH: QVQLVESGGGLVQPGGSLRLSCEASGFAFGRYEMNWVRQAPGKGLEWIAYIDTGGGAKVYADSVKGRFTISRDDSKNSLYLQMNSLRAEDTAVYYCTTEGLMNGLHFDMWGQGTMITVSS
VL: DIQMTQSPSTLSASVGDRVAITCRASQAISTWLAWYQQKPGKAPKLLIYTASTLESGVPSRFSGSGSGTDFTLTINSLQPDDFATYYCQQLNSYPYTFGGGTKVEIKR
notes: IgG form: VH cloned into Invivogen pfusess-hchg1, VL into Invivogen pfuse2ss-hclk; also called 2B2
For B3, in test [1], the “IC50 of Tie2 phosphorylation” value came to 11 nM. In addition, the IC50 amounted to 1.49 nM in test [2] and 3.98 nM in test [3]. Besides, the binding result in test [4] is given as “no binding (tested: 2 mg/ml (unit as read in the legend))”.

B4: No. 8 anti-Ang2 antibody (IgG) (antibody, V domains shown)
VH: QVQLVESGGGLVKPGGSLRLSCAASGFTFSSYSMNWVRQAPGKGLEWVSSISASDGATYYADSVRGRFTISRDNSRSTLYLQMNSLRAEDTAVYYCAKILAGYSGPMGGMDVWGQGTTVTVSS
VL: DIQMTQSPSSLSASVGDRVTITCRASRDISNYLAWYQQKPGKAPKSLIYGASNLQSGVSSQFSGSGSGTDFTLTINSLQPEDSATYYCQQYYSYPLTFGGGTKVDIKR
notes: IgG form: VH cloned into Invivogen pfusess-hchg1, VL into Invivogen pfuse2ss-hclk; also called 3A10
As to B4, the “IC50 of Tie2 phosphorylation” value in test [1] is 20.2 nM. The results for the IC50 in test [2] and in test [3] were 1.89 nM and 4.83 nM, respectively. Also, in test [4], the binding result was “no binding (tested: 2 mg/ml (unit as read in the legend))”.

B5: No. 46 anti-Ang2 antibody (IgG) (antibody, V domains shown)
VH: QVQLVESGGGLVQPGRSLRLSCAASGFTFDDCAMHWVRQAPGKGLEWVSGISGNSKNVAYADSVKGRFSISRDDAKNSLYLQMNSLRAEDTAVYYCARDPAYSQFDYWGQGTLITVSS
VL: QSALTQPPSLSATPGQRVTISCSGSSSNVGGYPVNWYQQVPGAAPKLLMYTDYKRPSGVPDRFFGSKSGTSASLAISGLQSEDEADYYCATWDDNLNGYVFGTGTKVTVLG
notes: IgG form: VH cloned into Invivogen pfusess-hchg1, VL into Invivogen pfuse2ss-hclk; also called 3C6
For the molecule B5, the “IC50 of Tie2 phosphorylation” value in test [1] is 10.1 nM. The 50% inhibitory concentration (IC50) in test [2] came out at 1.9 nM; in test [3] it was 5.25 nM. The binding result in test [4] is listed as “no binding (tested: 2 mg/ml (unit as read in the legend))”.

The values above are taken from patent publication US20220204603A1 (PHARMABCINE, published 2022).
